Drawing on publication PMC6309224, this text covers Kd, fold weaker binding than wild-type Dpr4 and fold decrease in binding against wild-type Dpr6 for 17 substances.

For test [1], the target named is DIP-α ectodomain (isoform A Phe40-Pro341) (Drosophila melanogaster). The test is described as follows: AUC.
Test [2] deals with DIP-ζ ectodomain (isoform A Glu111-Tyr412) (Drosophila melanogaster). The test is described as follows: AUC.
For test [3], the target named is DIP-η ectodomain (isoform B Gln31-Pro338) (Drosophila melanogaster). The experiment in a line: AUC.
The target of test [4] is DIP-ι ectodomain (Phe23-Ala325) (Drosophila melanogaster). The experiment in a line: SPR. For orientation: Surface plasmon resonance follows binding to a sensor surface in real time, without labels.
Test [5] concerns the target DIP-η ectodomain (isoform B Gln31-Pro338) (Drosophila melanogaster). The test is described as follows: SPR.
Test [6] deals with DIP-α ectodomain (isoform A Phe40-Pro341) (Drosophila melanogaster). The test is described as follows: SPR.
Test [7] concerns the target DIP-θ ectodomain (Asp128-Pro423) (Drosophila melanogaster). The experiment in a line: SPR.
Test [8] has as its target DIP-β ectodomain (isoform C Ile82-Glu408) (Drosophila melanogaster). The experiment in a line: SPR.
Test [9] addresses Dpr12 ectodomain (Dpr12C Ser72-Asp285) (Drosophila melanogaster). The experiment in a line: AUC.
Test [10] deals with DIP-ζ ectodomain (isoform A Glu111-Tyr412) (Drosophila melanogaster). The test is described as follows: SPR.
Test [11] addresses DIP-ε ectodomain (Glu50-Ser351) (Drosophila melanogaster). The experiment in a line: SPR.
In test [12] the target is Dpr21 ectodomain (Asp48-Asp253) (Drosophila melanogaster). The experiment in a line: AUC.

What is called Kd is the concentration at which binding is half-saturated. High values mean weaker binding, low ones tighter binding. Regarding “DIP-α ectodomain (isoform A Phe40-Pro341) (domain or fragment)”, the Kd in test [1] turned out to be 23.9 µM. This lies in the double-digit micromolar range.

In test [2], “DIP-ζ ectodomain (isoform A Glu111-Tyr412) (domain or fragment)” yielded a Kd of 22.2 µM. Turning to “DIP-η ectodomain (isoform B Gln31-Pro338) (domain or fragment)”, the Kd in [3] came to 35.4 µM. For the substance “Dpr2 ectodomain (Dpr2F Tyr103-Glu323) (domain or fragment)”, the Kd was determined as 22.4 µM in [4] and 41 µM in test [5].

Turning to “Dpr4 D74N A76T K82H K136V ectodomain (domain or fragment)”, in test [6], the Kd was found to be 16 µM. In other words, the double-digit micromolar range. In turn, “Dpr4 K82H K136V ectodomain (domain or fragment)” had a Kd in test [6] of 44.9 µM. The fold weaker binding than wild-type Dpr4 in [5] and in [7] was over 4 fold each time.

The substance “Dpr4 K82H ectodomain (domain or fragment)” registered a Kd in test [6] of over 400 µM.

The substance “Dpr6 H110K ectodomain (domain or fragment)” returned a fold decrease in binding against wild-type Dpr6 in test [6] of 25 fold. As for “Dpr6 N102D H110K V164K ectodomain (domain or fragment)”, the Kd amounted to 119 µM in [5] and 72 µM in [7].

In turn, “Dpr6 ectodomain (Dpr6C Trp70-Glu275) (domain or fragment)” came in with a Kd in [8] of 19.4 µM.

For “Dpr7 ectodomain (Dpr7F Thr37-Glu269) (domain or fragment)”, the Kd in test [4] came out at 136 µM. In test [8], “Dpr10 ectodomain (Dpr10D Trp50-Glu255) (domain or fragment)” returned a Kd of 54.9 µM. Same read-out and setting: as for “Dpr11 ectodomain (Dpr11B Leu114-Glu324) (domain or fragment)”, the figure is 94 µM. In turn, “Dpr12 ectodomain (Dpr12C Ser72-Asp285) (domain or fragment)” had a Kd in test [9] of 71.3 µM. For “Dpr14 ectodomain (Dpr14A Thr26-Glu283) (domain or fragment)”, the Kd came out at 106 µM in [10] and 69.2 µM in [11]. Turning to “Dpr18 ectodomain (His214-Glu478) (domain or fragment)”, the results for the Kd in [10] and in [11] were 24.7 µM and 21.2 µM, respectively. With “Dpr21 ectodomain (Asp48-Asp253) (domain or fragment)”, the Kd in [12] was determined as 49.1 µM.
